This data set concerns the molecule itself. Nature of the data set: crystal structure.

B1: ligand-binding domain of GluK2 (GluK2-LBD), S1-GT-S2 construct (domain or fragment, Rattus norvegicus)
chain: NRSLIVTTILEEPYVLFKKSDKPLYGNDRFEGYCIDLLRELSTILGFTYEIRLVEDGKYGAQDDVNGQWNGMVRELIDHKADLAVAPLAITYVREKVIDFSKPFMTLGISILYRKGTPIDSADDLAKQTKIEYGAVEDGATMTFFKKSKISTYDKMWAFMSSRRQSVLVKSNEEGIQRVLTSDYAFLMESTTIEFVTQRNCNLTQIGGLIDSKGYGVGTPMGSPYRDKITIAILQLQEEGKLHMMKEKWWRGNGCP
In general, stoichiometry N refers to a count of units in the complex or per binding partner. For B1, the “stoichiometry N” value is 2.

Values taken from article doi:10.1101/2023.11.02.565309 (bioRxiv, 2023).
